From patent US20210206832A1 (Regeneron, published 2021)

How the values were obtained:
[1] = target: T1, recombinant VEGF MiniTrap (dimer) MT5 (human); experiment: affinity chromatography on the mAb1 column, repeated run, 19.7 mg MT5 loaded
T1 construct: also called VEGF MiniTrap 5
T1 chain: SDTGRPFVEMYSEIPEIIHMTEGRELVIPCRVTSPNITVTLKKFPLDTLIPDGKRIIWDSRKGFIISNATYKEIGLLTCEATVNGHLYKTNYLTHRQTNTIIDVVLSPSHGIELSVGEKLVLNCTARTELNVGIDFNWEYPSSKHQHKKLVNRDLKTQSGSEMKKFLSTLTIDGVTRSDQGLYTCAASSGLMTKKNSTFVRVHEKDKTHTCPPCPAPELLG

[2] = target: T1, recombinant VEGF MiniTrap (dimer) MT5; experiment: affinity chromatography on the mAb1 column, repeated run, 19.6 mg MT5 loaded

B1: mAb1 (a mouse anti-VEGFR1 mAb human IgG1) (antibody)
heavy: not shown
light: DIQMTQSPSSLSASLGGKVTITCTTSQDSNNYIAWYQHKPGKGPRLLIHYASTLQPGIPSRFSGSGSGRDYSFSISNLEPEDIATYFCLQYDYLWTFGGGTKLELKRTVAAPSVFIFPPSDEQLKSGTASVVCLLNNFYPREAKVQWKVDNALQSGNSQESVTEQDSKDSTYSLSSTLTLSKADYEKHKVYACEVTHQGLSSPVTKSFNRGEC
B1 was tested, and the “Eluate” value [1] was 1.8 mg and the “Eluate” value [2] was 2 mg.
